Patent US20260217847A1 (published 2026)
Numbering of substitutions follows the chain as printed.

B1: anti-humanized TfR1 single-domain antibody-Fc fusion antibody 4D11-hFC1 (Fc fusion)
chain (part 1 of 2): ESGGGLVQPGESLRLSCVASGSIWSIYTMGWYRQAPGKQRDFVASITRDSTRTLESVKDRFIISRDNAKNTLYLQMNSLKPEDTAVYYCHAITSLGEYWGQGTQVTVSS
B2: anti-humanized TfR1 single-domain antibody-Fc fusion antibody 4C5-hFC1 (Fc fusion)
chain (part 1 of 2): ESGGGLVQPGESLRLSCAASGSIWSIYTMGWYRQAPGLQRDFVGSIAREGGRRYAESVKDRFTISRDNAKNTMYLQMNSLKREDTAVYYCNAITSLGEYWGQGTQVTVSS
B3: anti-humanized TfR1 single-domain antibody-Fc fusion antibody 8E10-hFC1 (Fc fusion)
chain (part 1 of 2): ESGGGLVQAGGSLRLSCAFSGPPFSTYGMGWFRQAPGKEREFVATISGSGFTTTYADSVKGRFTISRDNAKNTVYLQMNSLKPGDTAVYYCAAGVLDGTNWHEYDYWGQGTQVTVSS
B4: anti-humanized TfR1 single-domain antibody-Fc fusion antibody 2H7-hFC1 (Fc fusion)
chain (part 1 of 2): B1 chain (part 1 of 2) with R48G, A68T, H90Q
B5: anti-humanized TfR1 single-domain antibody-Fc fusion antibody 7G10-hFC1 (Fc fusion)
chain (part 1 of 2): ESGGGLVQAGASLKLSCNGSGRTFISYAMGWFRQAPGKQREFVAAERWSGSGIYYADSLKGRFTISRDNAKNTVYLEMNNLKPEDTAVYYCAAREGGLLHVATSYDYWGQGTQVTVSS
B6: anti-humanized TfR1 single-domain antibody-Fc fusion antibody 5A3-hFC1 (Fc fusion)
chain (part 1 of 2): ESGGGLVQAGGSLTLSCAVSRRAFNTKAMGWFRQAPGKEREFVATISWSGFSTNYADSVKGRFTISRDNAKNTVYLQMNSLKPGDTAVYYCAAGVLDGTNWHEYDYWGQGTQVTVSS
B7: anti-humanized TfR1 single-domain antibody-Fc fusion antibody 5D3-hFC1 (Fc fusion)
chain (part 1 of 2): ESGGGLVEPGGSLRLSCAASGNIFSINNMYWHRQAPGKQRELVGGITRGGITNYVDSVKGRFTISRDNAKNTVYLQMNSLKPEDTAVYFCNAHPWRLGIADYWGQGTQVTVSS
B8: anti-humanized TfR1 single-domain antibody-Fc fusion antibody 7D10-hFC1 (Fc fusion)
chain (part 1 of 2): ESGGGLVQPGGSLRLSCATSGGTFEMYAMAWFRQAPGKDREGVAGFSWRDSSTTYYSDSVKGRFTISRDNAKNTVYLQMNSLKPEDTAVYYCAARPYVSRWSESSGYDYWGQGTQVTVSS
B9: anti-humanized TfR1 single-domain antibody-Fc fusion antibody 7G5-hFC1 (Fc fusion)
chain (part 1 of 2): ESGGGSVQPGGSLRLSCAVSGSIFSIDTMAWYRQAPGKQRELVAAITKGGSRNYADSVKGRFTISRDNAKNTVYLQMNSLKPEDTAVYYCLADRLFRDRSWGQGTQVTVSS
B10: anti-humanized TfR1 single-domain antibody-Fc fusion antibody 5D1-hFC1 (Fc fusion)
chain (part 1 of 2): B2 chain (part 1 of 2) with A18V, L38K, G44A, A47T, E49D, Y54H, M73L, R82P, Y89S, N91L
B11: anti-humanized TfR1 single-domain antibody-Fc fusion antibody 7A3-hFC1 (Fc fusion)
chain (part 1 of 2): B2 chain (part 1 of 2) with A18V, L38K, G44A, A47T, E49D, G50S, M73L, M77T, R82P, N91H

The binders below were run against T1, human recombinant TfR1 protein (amino acids 89-760) (human, UniProt P02786 89-760) (assay: ELISA).
T1 sequence (P02786 89-760): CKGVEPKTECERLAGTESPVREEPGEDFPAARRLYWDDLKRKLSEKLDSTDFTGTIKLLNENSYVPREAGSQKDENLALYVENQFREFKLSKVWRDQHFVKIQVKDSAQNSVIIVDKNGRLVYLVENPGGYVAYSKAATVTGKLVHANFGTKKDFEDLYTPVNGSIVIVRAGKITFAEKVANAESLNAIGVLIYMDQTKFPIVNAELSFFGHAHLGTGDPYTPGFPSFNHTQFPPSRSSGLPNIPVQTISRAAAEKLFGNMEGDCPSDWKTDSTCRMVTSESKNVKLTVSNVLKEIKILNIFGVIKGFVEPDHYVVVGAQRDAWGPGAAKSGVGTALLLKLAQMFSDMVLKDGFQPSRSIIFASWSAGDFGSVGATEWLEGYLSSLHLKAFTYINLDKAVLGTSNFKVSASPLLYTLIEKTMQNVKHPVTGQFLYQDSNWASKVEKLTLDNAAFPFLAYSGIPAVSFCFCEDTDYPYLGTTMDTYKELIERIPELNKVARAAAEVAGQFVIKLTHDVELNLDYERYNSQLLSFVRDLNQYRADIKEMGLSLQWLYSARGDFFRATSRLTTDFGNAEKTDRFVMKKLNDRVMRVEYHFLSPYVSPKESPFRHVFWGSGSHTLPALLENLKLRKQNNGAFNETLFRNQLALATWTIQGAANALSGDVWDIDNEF

| Binder | EC50 [nM] |
| --- | --- |
| B1 | 0.0592 |
| B2 | 0.0644 |

Molecular target: T1, human recombinant TfR1 protein (amino …)
Assay: ELISA
Remark: another data set of the same source

| Binder | EC50 [nM] |
| --- | --- |
| B3 | 0.0962 |
| B4 | 0.0396 |

Molecular target: T1, human recombinant TfR1 protein (amino …)
Assay: ELISA
Remark: another data set of the same source

| Binder | EC50 [nM] |
| --- | --- |
| B5 | 0.0854 |
| B6 | 0.0761 |
| B7 | 0.0861 |
| B8 | 0.151 |
| B9 | 0.0724 |
| B10 | 0.0595 |
| B11 | 0.0521 |
